Assay results from the supplement of paper PMC7877785.
± gives the uncertainty stated by the source.

Experiment: self-splicing fitness, log relative to wild type (ln ratio); higher = more splicing; Tetrahymena group I intron in knt gene, E. coli kanamycin selection, DiMSum; sequences stand for … in CUCUCU…GGAGGGAAAAGUUAUCAGGCAUGCACCUGGUAGCUAGUCUUUAAACCAAUAGAUUGCAUCGGUUUAAAAGGCAAGACCGUCAAAUUGCGGGAAAGGGGUCAACAGCCGUUCAGUACCAAGUCUCAGGGGAAACUUUGAGAUGGCCUUGCAAAGGGUAUGGUAAUAAGCUGACGGACAUGGUCCUAACCACGCAGCCAAGUCCUAAGUCAACAGAUCUUCUGUUGAUAUGGAUGCAGUUCACAGACUAAAUGUCGGUCGGGGAAGAUGUAUUCUUCUCAUAAGAUAUAGUCGGACCUCUCCUUAAUGGGAGCUAGCGGAUGAAGUGAUGCAACACUGGAGCCGCUGGGAACUAAUUUGUAUGCGAAAGUAUAUUGAUUAGUUUUGGAGUACUCGUGGUCG
Method in brief: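 Six replicate transformations of E. coli BL21(DE3) with a pET-22b(+) library were grown overnight at 37°C or 30°C. The library randomised all eight P1ex-region intron nucleotides, the intron lying in the knt kanamycin-resistance gene, and plates were LB agar with or without 25 μg/mL kanamycin plus 100 μg/mL carbenicillin, 50 μM IPTG and 0.2% rhamnose. Pooled colonies were amplicon-sequenced on an Illumina HiSeq 2500, and fitness is the DiMSum error-weighted combination of wild-type-normalised replicate fold changes, kanamycin versus none.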

Sequence	self-splicing fitness (ln) (30 °C)	self-splicing fitness (ln) (37 °C)
UCCAAGCAAUAUUACGAUCA	-1.1 ± 0.14	-0.861 ± 0.15
UCCAAGCAAUAUUACGAUGU	-1.37 ± 0.057	-0.338 ± 0.082
UCCAAGCAAUAUUACGCAAU	-3.44 ± 0.22	-2.71 ± 0.26
UCCAAGCAAUAUUACGCCUU	-4.12 ± 0.22	-2.98 ± 0.21
UCCAAGCAAUAUUACGGAGA	-0.684 ± 0.087	-0.415 ± 0.092
UCCAAGCAAUAUUACGGAUU	-4.35 ± 0.2	-3.1 ± 0.18
UCCAAGCAAUAUUACGGCAG	-4.85 ± 0.46	-2.84 ± 0.28
UCCAAGCAAUAUUACGGCUG	-2.69 ± 0.15	-3.33 ± 0.22
UCCAAGCAAUAUUACGGGCU	-3.43 ± 0.14	-1.95 ± 0.12
UCCAAGCAAUAUUACGGUAG	-4.7 ± 0.41	-2.21 ± 0.16
UCCAAGCAAUAUUACGUCGA	-0.163 ± 0.075	0.376 ± 0.1
UCCAAGCAAUAUUACGUGUA	-0.565 ± 0.043	0.504 ± 0.057
UCCAAGCAAUAUUACGUUCG	-3.57 ± 0.27	-2.2 ± 0.21
UCCCAGCAAUAUUACGAACU	-3.52 ± 0.33	-2.92 ± 0.43
UCCCAGCAAUAUUACGAAGC	-3.98 ± 0.42	-1.71 ± 0.24
UCCCAGCAAUAUUACGACGU	-1.53 ± 0.071	-0.16 ± 0.084
UCCCAGCAAUAUUACGAUGC	-4.03 ± 0.3	-3.29 ± 0.32
UCCCAGCAAUAUUACGCCGC	-4.73 ± 0.32	-3.05 ± 0.27
UCCCAGCAAUAUUACGCGAA	-2.11 ± 0.16	-1.07 ± 0.14

Sequence	self-splicing fitness (ln) (30 °C)	self-splicing fitness (ln) (37 °C)
UCCCAGCAAUAUUACGCGCG	-3.27 ± 0.17	-2.98 ± 0.24
UCCCAGCAAUAUUACGCUGU	-3.99 ± 0.23	-2.18 ± 0.23
UCCCAGCAAUAUUACGGCAC	-3.11 ± 0.12	-1.88 ± 0.15
UCCCAGCAAUAUUACGGCCA	-0.679 ± 0.095	-0.115 ± 0.12
UCCCAGCAAUAUUACGGCUC	-2.83 ± 0.14	-2.31 ± 0.24
UCCCAGCAAUAUUACGGGCC	-3.03 ± 0.22	-1.7 ± 0.18
UCCCAGCAAUAUUACGGGGG	-4 ± 0.18	-3.66 ± 0.33
UCCCAGCAAUAUUACGGGUU	-2.48 ± 0.07	-1.54 ± 0.079
UCCCAGCAAUAUUACGUAUU	-2.91 ± 0.2	-3.28 ± 0.28
UCCCAGCAAUAUUACGUCAA	-2.71 ± 0.18	-1.13 ± 0.16
UCCCAGCAAUAUUACGUCAG	-3.74 ± 0.16	-2.83 ± 0.16
UCCCAGCAAUAUUACGUGAC	-2.74 ± 0.15	-3.06 ± 0.32
UCCCAGCAAUAUUACGUGCG	-3.71 ± 0.15	-2.93 ± 0.17
UCCCAGCAAUAUUACGUGGA	-3.08 ± 0.14	-1.95 ± 0.15
UCCCAGCAAUAUUACGUGUG	-3.46 ± 0.094	-2.32 ± 0.093
UCCCAGCAAUAUUACGUUAC	-3.88 ± 0.22	-2.72 ± 0.27
UCCCAGCAAUAUUACGUUGC	-3.5 ± 0.27	-2.06 ± 0.27
UCCCAGCAAUAUUACGUUUC	-4.35 ± 0.34	-2.4 ± 0.28
